B1: DVD471 (bispecific antibody, human IgG1, kappa, L234A L235A)
heavy: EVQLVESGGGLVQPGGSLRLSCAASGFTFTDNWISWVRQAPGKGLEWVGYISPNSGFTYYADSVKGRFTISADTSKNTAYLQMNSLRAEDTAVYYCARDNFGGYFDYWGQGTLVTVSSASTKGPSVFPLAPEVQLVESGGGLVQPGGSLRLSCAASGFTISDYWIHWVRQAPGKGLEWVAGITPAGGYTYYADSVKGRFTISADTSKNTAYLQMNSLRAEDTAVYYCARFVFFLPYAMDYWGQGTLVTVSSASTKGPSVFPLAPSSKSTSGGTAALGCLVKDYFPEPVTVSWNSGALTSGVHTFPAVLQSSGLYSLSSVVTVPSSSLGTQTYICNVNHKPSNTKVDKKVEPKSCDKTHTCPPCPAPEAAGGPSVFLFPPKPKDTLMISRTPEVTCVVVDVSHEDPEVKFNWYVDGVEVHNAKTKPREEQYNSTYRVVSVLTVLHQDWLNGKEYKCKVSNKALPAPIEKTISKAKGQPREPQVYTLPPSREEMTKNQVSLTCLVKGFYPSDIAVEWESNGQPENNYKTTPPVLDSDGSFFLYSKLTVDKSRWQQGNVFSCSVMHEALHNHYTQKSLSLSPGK
light: DIQMTQSPSSLSASVGDRVTITCRASQDVSTAVAWYQQKPGKAPKLLIYSASFLYSGVPSRFSGSGSGTDFTLTISSLQPEDFATTYYCQQSYTGTVTFGQGTKVEIKRTVAAPSVFIFPPDIQMTQSPSSLSASVGDRVTITCRASQDVSTAVAWYQQKPGKAPKLLIYSASFLYSGVPSRFSGSGSGTDFTLTISSLQPEDFATYYCQQSYTTPPTFGQGTKVEIKRTVAAPSVFIFPPSDEQLKSGTASVVCLLNNFYPREAKVQWKVDNALQSGNSQESVTEQDSKDSTYSLSSTLTLSKADYEKHKVYACEVTHQGLSSPVTKSFNRGEC
notes: HC linker long, LC linker long; also called DVD-Ig DVD471
B2: DVD483 (bispecific antibody, human IgG1, kappa)
heavy: not shown
light: DIQMTQSPSSLSASVGDRVTITCRASQDVSTAVAWYQQKPGKAPKLLIYSASFLYSGVPSRFSGSGSGTDFTLTISSLQPEDFATTYYCQQSYTGTVTFGQGTKVEIKRTVAAPSVFIFPPDIQMTQSPSSLSASVGDRVTITCRASQDVSTAVAWYQQKPGKAPKLLIYSASFLYSGVPSRFSGSGSGTDFTLTISSLQPEDFATYYCQQSYTTPPTFGQGTKVEIKRTVAAPSVFIFPPSDEQLKSGTASVVCLLNNFYPREAKVQWKVDNALQSGNSQESVTEQDSKDSTYSLSSTLTLSKADYEKHKVYACEVTHQGLSSPVTKSFNRGEC
notes: HC linker short, LC linker long; also called DVD-Ig DVD483
B3: DVD465 (bispecific antibody, human IgG1, kappa)
heavy: not shown
light: DIQMTQSPSSLSASVGDRVTITCRASQDVSTAVAWYQQKPGKAPKLLIYSASFLYSGVPSRFSGSGSGTDFTLTISSLQPEDFATTYYCQQSYTGTVTFGQGTKVEIKRTVAAPDIQMTQSPSSLSASVGDRVTITCRASQDVSTAVAWYQQKPGKAPKLLIYSASFLYSGVPSRFSGSGSGTDFTLTISSLQPEDFATYYCQQSYTTPPTFGQGTKVEIKRTVAAPSVFIFPPSDEQLKSGTASVVCLLNNFYPREAKVQWKVDNALQSGNSQESVTEQDSKDSTYSLSSTLTLSKADYEKHKVYACEVTHQGLSSPVTKSFNRGEC
notes: HC linker short, LC linker short; also called DVD-Ig DVD465
B4: DVD477 (bispecific antibody, human IgG1, kappa, L234A L235A)
heavy: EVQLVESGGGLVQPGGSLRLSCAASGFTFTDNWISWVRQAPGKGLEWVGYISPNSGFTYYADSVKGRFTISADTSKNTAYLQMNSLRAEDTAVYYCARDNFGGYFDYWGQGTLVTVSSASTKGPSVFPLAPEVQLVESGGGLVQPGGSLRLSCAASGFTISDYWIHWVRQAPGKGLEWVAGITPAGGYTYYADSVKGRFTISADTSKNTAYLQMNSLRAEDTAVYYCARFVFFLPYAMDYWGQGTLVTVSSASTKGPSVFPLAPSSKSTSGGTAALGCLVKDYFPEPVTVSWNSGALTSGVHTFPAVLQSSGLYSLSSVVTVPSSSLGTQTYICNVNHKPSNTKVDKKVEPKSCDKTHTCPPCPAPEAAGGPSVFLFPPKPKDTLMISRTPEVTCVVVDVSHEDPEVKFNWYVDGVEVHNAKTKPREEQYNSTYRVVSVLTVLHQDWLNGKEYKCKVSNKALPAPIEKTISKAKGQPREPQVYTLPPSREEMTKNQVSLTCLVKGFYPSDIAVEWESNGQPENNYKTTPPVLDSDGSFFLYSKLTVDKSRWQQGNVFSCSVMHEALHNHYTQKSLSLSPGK
light: DIQMTQSPSSLSASVGDRVTITCRASQDVSTAVAWYQQKPGKAPKLLIYSASFLYSGVPSRFSGSGSGTDFTLTISSLQPEDFATTYYCQQSYTGTVTFGQGTKVEIKRTVAAPDIQMTQSPSSLSASVGDRVTITCRASQDVSTAVAWYQQKPGKAPKLLIYSASFLYSGVPSRFSGSGSGTDFTLTISSLQPEDFATYYCQQSYTTPPTFGQGTKVEIKRTVAAPSVFIFPPSDEQLKSGTASVVCLLNNFYPREAKVQWKVDNALQSGNSQESVTEQDSKDSTYSLSSTLTLSKADYEKHKVYACEVTHQGLSSPVTKSFNRGEC
notes: HC linker long, LC linker short; also called DVD-Ig DVD477
B5: DVD510 (bispecific antibody, human IgG1, kappa)
heavy: not shown
light: DIQMTQSPSSLSASVGDRVTITCRASQVIRRSLAWYQQKPGKAPKLLIYAASNLASGVPSRFSGSGSGTDFTLTISSLQPEDFATYYCQQSNTSPLTFGQGTKVEIKRTVAAPSVFIFPPDIQMTQSSSYLSVSLGGRVTITCKASDHINNWLAWYQQKPGNAPRLLISGATSLETGVPSRFSGSGSGKDYTLSITSLQTEDVATYYCQQYWSIPLTFGAGTKLELKRTVAAPSVFIFPPSDEQLKSGTASVVCLLNNFYPREAKVQWKVDNALQSGNSQESVTEQDSKDSTYSLSSTLTLSKADYEKHKVYACEVTHQGLSSPVTKSFNRGEC
notes: Outer AB071 (VEGF), inner AB072 (DLL4); HC linker short, LC linker long; also called DVD-Ig DVD510

This test addresses T1, DLL4 ECD His tag (UniProt Q9NR61 27-529, limits assumed).
T1 construct: extracellular domain; also called DLL ECD His tag
The experiment in a line: SPR (Biacore), DVD-Ig captured, DLL4 as analyte. A general note: SPR reads the build-up and loss of mass on a sensor chip optically.
A word on the Kd: it is the free concentration of one partner at which half of the binding sites on the other are occupied at equilibrium, for simple one-to-one binding. By koff is commonly meant the first-order rate constant of dissociation. Low values mean slow dissociation, high ones fast dissociation. As a reminder, the kon is the second-order rate constant of association. A higher kon goes with fast association. As for B1, the Kd came to 0.672 nM, the koff is 0.000252 s⁻¹ and the association rate constant (kon) stood at 376000 M⁻¹ s⁻¹.

In the case of B2, the Kd came out at 0.334 nM, the koff stood at 0.000139 s⁻¹ and the kon is 416000 M⁻¹ s⁻¹.

Regarding B3, the Kd turned out to be 0.205 nM, the koff is 0.000164 s⁻¹ and the kon amounted to 797000 M⁻¹ s⁻¹.

B4 registered a Kd of 0.306 nM, a koff of 0.000165 s⁻¹ and a kon of 540000 M⁻¹ s⁻¹.

B5 returned a Kd of 1.55 nM, a koff of 8.84e-05 s⁻¹ and a kon of 56900 M⁻¹ s⁻¹.

These data come from patent US20100260668A1 (published 2010).
